T1: SRC-1 (1139C) (Homo sapiens, UniProt Q15788)
T1 construct: expressed in transfected cells; host or cells: CV-1
T1 sequence (Q15788 1139-1441 limits assumed): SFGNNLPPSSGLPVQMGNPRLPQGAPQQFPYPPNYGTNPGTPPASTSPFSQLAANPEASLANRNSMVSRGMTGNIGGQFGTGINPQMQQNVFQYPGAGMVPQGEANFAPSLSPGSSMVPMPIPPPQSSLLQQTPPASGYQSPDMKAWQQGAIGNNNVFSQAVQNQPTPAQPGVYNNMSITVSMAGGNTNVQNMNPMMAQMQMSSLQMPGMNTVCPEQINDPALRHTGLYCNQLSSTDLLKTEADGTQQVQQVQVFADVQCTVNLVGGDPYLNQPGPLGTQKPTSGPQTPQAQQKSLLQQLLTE
T1 sequence (Q6EMB2 627-838 partner limits assumed): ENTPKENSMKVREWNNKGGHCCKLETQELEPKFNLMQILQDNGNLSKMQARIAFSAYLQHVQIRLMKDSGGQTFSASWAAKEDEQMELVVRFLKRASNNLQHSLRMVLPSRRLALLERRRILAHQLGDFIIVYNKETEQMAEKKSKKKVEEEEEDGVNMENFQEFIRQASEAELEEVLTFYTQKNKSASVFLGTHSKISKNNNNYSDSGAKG


Columns and labels:
Type in all cases: cell-based
SRC-1 (1139C) = molecular target: T1, SRC-1 (1139C); assay: Mammalian two-hybrid assay in CV-1 cells with SRC-1 C-terminal fragment
Excerpt: FIG. 2A-2C illustrate the isolation and characterization of the partial clone of the protein that binds to TIF2.4. […] Five clones were obtained but only two (clones I and V) contained a protein that was needed for colony growth in the presence of the pSos/TIF2.4 fusion protein. After initial screening, only clone I (also named 6-6CL1) was selected for further investigation. FIG. 2B and FIG. 2C illustrate the selectivity of 6-6CL1 interactions with TIF2.4 in mammalian two-hybrid assays. Triplicate samples of CV-1 cells in 24-well plates were transiently transfected with the indicated GAL-DBD and VP16-AD plasmids along with the GAL4-regulated reporter, pFRLuc. The relative luciferase activity, normalized for the activity of the internal Renilla control, was determined and plotted as the average±S.D. The much lower activity of GAL/TIF2.4m123 was previously shown not to be due to unequal levels of protein expression (He et al., 2002). Similar results were obtained in three additional experiments. […] Triplicate samples of CV-1 cells in 24-well plates were analyzed as in (B&C) after being transiently transfected with GAL±6-6CL1 constructs and pFRLuc reporter along with VP16 chimeras of SRC-1 (FIG. 2D) or TIF2 (FIG. 2E) segments. Similar results for SRC-1 were obtained in two additional experiments (ND=not determined). […]

p300 = molecular target: T2, p300 (Homo sapiens, UniProt Q09472); assay: Mammalian two-hybrid assay with p300; conditions: data not shown
T2 construct: expressed in transfected cells; host or cells: CV-1 (the same two-hybrid assay)
Method: (§1) These assays were conducted as described (He et al., 2002). In particular, the recommended procedure for the Mammalian Matchmaker two-hybrid assay kit (Clontech) was modified slightly by changing from a chloramphenicol acetyltransferase reporter to a Luciferase Reporter pFRLuc (Stratagene), which is under the control of five repeats of the upstream activating sequence for the binding of GAL4.

CBP = molecular target: T3, CBP (Homo sapiens, UniProt Q92793); assay: Mammalian two-hybrid assay with CBP; conditions: data not shown
T3 construct: expressed in transfected cells; host or cells: CV-1 (the same two-hybrid assay)
Method: as §1

[1] = system: GR repression of an AP-1 induced gene; assay: GR-mediated repression of PMA-induced AP-1/Luc reporter in U2OS.rGR cells; conditions: 25 μM PMA, no Dex
Method: FIG. 5A-F illustrate STAMP modulation of GR-mediated repression. […] U2OS.rGR cells were transiently transfected with ±TIF2 (20 ng)±STAMP (100 ng) plasmids, AP-1/Luc reporter (20 ng), and Renilla control (10 ng) plasmid. The cells were induced with ethanol (EtOH) or 25 μM PMA±0.1 μM Dex. […] The average values±S.E.M. of four experiments are plotted. The numbers in parentheses above the bars labeled “PMA+Dex” represent the average fold repression caused by Dex± the various factors.
FIG. 5B illustrates that functional TIF2 is needed for optimal STAMP activity. U2OS.rGR cells were transiently transfected and processed as described for FIG. 5A but less STAMP (50 ng) was used and two concentrations of TIF2 or TIF2m123 (10 and 20 ng) were employed. The average values±S.E.M. of 4-5 experiments are plotted. An asterisk indicates a significant difference (P≦0.031) between samples containing equal amounts of TIF2 and TIF2m123.
Rogatsky et al. have reported that TIF2 augments GR repression of an AP-1 induced gene. […] The TIF2 domain identified as having TIF2 activity in GR repression was the same as used to isolate STAMP. In order to determine if STAMP was active in GR-mediated gene repression as well as induction, the ability of STAMP to increase the repressive activity of GR in the AP-1 responsive whole cell bioassay system was assessed using U2OS.rGR cells.

T3 sequence (Q92793 whole entry): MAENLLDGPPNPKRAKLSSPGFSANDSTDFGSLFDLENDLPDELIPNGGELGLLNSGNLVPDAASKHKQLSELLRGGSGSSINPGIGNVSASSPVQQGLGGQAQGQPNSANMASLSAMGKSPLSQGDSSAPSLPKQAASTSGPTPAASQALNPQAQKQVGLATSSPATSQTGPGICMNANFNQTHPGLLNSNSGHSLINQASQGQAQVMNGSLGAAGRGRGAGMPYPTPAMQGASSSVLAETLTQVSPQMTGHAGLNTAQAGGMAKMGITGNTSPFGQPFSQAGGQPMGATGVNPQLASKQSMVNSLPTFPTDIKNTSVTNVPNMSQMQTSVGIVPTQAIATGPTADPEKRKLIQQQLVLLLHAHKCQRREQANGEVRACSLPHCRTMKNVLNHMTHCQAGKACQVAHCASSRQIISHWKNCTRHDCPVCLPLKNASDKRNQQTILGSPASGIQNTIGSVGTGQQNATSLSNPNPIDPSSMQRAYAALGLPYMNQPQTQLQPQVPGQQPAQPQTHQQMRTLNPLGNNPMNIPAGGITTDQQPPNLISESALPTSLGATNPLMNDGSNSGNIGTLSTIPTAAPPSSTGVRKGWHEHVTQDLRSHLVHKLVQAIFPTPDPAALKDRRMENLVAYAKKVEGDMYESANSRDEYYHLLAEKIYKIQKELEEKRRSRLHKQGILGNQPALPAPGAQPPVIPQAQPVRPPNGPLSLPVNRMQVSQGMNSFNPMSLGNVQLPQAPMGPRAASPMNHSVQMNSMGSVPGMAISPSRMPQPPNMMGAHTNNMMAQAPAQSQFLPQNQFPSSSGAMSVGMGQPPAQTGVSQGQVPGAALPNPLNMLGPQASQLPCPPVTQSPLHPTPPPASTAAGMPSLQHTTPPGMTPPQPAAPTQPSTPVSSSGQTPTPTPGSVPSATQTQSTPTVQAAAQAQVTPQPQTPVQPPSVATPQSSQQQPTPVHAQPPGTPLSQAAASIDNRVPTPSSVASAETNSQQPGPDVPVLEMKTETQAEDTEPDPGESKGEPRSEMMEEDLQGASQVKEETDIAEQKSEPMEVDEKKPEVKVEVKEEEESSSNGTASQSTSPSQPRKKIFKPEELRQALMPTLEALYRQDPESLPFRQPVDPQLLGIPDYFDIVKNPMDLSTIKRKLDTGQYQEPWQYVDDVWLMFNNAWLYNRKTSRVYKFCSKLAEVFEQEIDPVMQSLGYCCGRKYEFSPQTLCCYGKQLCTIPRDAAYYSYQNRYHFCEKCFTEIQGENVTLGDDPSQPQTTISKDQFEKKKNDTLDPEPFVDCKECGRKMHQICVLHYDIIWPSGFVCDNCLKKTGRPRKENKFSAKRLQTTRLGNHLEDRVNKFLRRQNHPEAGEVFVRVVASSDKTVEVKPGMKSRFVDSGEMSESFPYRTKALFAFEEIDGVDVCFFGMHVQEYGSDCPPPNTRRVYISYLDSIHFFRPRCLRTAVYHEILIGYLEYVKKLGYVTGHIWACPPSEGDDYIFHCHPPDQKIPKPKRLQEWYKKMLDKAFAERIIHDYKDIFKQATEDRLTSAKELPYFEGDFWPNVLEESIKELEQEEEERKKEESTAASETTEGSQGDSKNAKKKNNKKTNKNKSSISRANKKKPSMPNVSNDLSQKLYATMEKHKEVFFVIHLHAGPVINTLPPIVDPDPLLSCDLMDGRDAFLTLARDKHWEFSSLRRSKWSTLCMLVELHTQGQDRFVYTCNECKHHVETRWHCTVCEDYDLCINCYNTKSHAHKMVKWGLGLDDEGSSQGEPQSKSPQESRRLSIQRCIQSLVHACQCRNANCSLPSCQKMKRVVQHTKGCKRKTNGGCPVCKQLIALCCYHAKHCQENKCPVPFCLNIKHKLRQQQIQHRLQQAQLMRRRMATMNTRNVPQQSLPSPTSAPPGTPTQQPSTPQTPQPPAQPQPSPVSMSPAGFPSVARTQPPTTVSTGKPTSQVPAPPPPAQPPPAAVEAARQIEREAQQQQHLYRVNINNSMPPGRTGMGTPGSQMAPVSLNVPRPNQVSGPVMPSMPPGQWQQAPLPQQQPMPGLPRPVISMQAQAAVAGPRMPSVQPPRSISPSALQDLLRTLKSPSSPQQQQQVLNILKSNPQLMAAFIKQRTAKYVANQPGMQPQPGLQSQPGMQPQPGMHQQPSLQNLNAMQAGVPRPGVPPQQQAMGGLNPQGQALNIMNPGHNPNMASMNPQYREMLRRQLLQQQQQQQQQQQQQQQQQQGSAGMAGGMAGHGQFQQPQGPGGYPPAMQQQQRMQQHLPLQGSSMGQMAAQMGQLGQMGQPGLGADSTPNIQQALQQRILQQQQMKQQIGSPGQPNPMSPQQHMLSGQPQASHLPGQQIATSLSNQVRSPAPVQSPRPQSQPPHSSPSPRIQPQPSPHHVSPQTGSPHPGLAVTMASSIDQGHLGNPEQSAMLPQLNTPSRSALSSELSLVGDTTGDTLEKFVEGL
T2 sequence (Q09472 whole entry, species assumed): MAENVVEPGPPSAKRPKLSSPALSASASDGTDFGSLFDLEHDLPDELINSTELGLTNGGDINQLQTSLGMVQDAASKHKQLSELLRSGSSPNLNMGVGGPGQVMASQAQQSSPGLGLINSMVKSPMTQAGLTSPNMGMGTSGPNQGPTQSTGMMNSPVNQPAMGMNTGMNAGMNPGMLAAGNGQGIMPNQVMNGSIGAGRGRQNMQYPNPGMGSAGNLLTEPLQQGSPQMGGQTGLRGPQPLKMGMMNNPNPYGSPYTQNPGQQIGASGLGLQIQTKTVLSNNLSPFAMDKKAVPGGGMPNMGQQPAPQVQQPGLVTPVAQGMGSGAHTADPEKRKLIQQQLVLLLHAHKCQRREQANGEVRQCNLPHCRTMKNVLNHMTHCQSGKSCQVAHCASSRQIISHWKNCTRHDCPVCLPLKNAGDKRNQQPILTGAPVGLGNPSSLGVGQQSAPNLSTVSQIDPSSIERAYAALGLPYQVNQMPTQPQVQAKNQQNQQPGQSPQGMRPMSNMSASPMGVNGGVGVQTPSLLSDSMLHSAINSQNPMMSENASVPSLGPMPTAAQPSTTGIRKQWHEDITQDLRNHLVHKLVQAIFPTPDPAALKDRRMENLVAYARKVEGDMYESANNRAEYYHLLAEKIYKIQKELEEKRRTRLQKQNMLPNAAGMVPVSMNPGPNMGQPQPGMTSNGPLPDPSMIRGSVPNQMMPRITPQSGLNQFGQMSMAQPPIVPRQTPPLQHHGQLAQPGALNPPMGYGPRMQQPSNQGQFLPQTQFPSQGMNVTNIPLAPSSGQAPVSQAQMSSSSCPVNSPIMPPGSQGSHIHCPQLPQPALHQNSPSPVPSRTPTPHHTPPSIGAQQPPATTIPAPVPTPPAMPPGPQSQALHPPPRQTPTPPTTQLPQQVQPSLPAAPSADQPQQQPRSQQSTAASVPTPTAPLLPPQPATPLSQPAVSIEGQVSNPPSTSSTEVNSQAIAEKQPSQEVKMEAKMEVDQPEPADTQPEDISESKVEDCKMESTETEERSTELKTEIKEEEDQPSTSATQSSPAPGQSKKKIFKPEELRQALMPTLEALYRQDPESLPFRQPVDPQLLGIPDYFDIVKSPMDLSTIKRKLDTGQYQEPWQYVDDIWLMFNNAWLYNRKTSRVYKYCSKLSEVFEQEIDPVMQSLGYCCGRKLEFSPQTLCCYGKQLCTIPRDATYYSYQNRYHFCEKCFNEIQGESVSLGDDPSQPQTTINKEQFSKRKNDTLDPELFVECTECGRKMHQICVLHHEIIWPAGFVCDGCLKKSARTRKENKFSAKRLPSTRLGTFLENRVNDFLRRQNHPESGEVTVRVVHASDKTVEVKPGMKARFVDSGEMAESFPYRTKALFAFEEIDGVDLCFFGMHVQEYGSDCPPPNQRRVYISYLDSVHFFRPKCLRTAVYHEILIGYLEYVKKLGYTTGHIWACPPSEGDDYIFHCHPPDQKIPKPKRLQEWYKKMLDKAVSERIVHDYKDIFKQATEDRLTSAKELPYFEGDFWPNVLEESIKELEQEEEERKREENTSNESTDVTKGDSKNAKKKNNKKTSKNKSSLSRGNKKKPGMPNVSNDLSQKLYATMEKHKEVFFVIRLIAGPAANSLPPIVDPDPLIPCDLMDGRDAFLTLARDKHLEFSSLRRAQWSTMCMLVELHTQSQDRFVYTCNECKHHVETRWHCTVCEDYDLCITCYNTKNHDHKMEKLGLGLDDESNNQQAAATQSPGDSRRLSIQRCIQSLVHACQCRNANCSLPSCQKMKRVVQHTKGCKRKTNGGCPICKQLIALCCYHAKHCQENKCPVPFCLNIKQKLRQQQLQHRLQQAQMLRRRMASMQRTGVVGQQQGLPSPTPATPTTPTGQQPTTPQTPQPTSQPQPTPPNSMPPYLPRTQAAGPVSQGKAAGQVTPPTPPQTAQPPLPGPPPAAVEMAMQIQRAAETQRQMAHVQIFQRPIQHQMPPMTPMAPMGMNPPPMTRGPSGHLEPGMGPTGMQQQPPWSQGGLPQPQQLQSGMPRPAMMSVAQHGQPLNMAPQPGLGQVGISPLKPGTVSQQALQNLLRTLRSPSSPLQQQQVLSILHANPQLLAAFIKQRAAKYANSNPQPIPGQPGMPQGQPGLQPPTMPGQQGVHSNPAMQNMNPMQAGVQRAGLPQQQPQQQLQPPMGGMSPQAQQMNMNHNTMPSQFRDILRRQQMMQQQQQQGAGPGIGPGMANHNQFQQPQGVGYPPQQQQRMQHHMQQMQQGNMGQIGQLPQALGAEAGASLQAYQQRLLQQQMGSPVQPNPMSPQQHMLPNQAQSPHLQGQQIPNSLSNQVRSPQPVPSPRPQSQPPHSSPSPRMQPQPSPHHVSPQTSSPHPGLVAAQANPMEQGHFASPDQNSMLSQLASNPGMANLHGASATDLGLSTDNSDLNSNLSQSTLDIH

Molecule | interaction with C-terminal portion of SRC-1 (1139C) (SRC-1 (1139C)) | association with p300 (p300) | association with CBP (CBP) | fold induction by PMA [1]
6-6CL1: STAMP fragment amino acids 623-834, coactivator interaction domain (CID) (protein) ENTPKENSMKVREWNNKGGHCCKLETQELEPKFNLMQILQDNGNLSKMQARIAFSAYLQHVQIRLMKDSGGQTFSASWAAKEDEQMELVVRFLKRASNNLQHSLRMVLPSRRLALLERRRILAHQLGDFIIVYNKETEQMAEKKSKKKVEEEEEDGVNMENFQEFIRQASEAELEEVLTFYTQKNKSASVFLGTHSKISKNNNNYSDSGAKG | strongly interacted | negligible association | negligible association | 
STAMP: SRC-1 and TIF2 Associated Modulatory Protein, 1277 amino acid human polypeptide, expressed from transfected plasmid (protein) MARDLEETASSSEDEEVISQEDHPCIMWTGGCRRIPVLVFHADAILTKDNNIRVIGERYHLSYKIVRTDSRLVRSILTAHGFHEVHPSSTDYNLMWTGSHLKPFLLRTLSEAQKVNHFPRSYELTRKDRLYKNIIRMQHTHGFKVFHILPQTFLLPAEYAEFCNSYSKDRGPWIVKPVASSRGRGVYLINNPNQISLEENILVSRYINNPLLIDDFKFDVRLYVLVTSYDPLVIYLYEEGLARFATVRYDQGAKNIRNQFMHLTNYSVNKKSGDYVSCDDPEVEDYGNKWSMSAMLRYLKQEGRDTTALMAHVEDLIIKTIISAELAIATACKTFVPHRSSCFELYGFDVLIDSTLKPWLLEVNLSPSLACDAPLDLKIKASMISDMFTVVGFVCQDPAQRASTRPIYPTFESSRRNPFQKPQRCRPLSASDAEMKNLVGSAREKGPGKLGGSVLGLSMEEIKVLRRVKEENDRRGGFIRIFPTSETWEIYGSYLEHKTSMNYMLATRLFQDRMTADGAPELKIESLNSKAKLHAALYERKLLSLEVRKRRRRSSRLRAMRPKYPVITQPAEMNVKTETESEEEEEVALDNEDEEQEASQEESAGFLRENQAKYTPSLTALVENTPKENSMKVREWNNKGGHCCKLETQELEPKFNLMQILQDNGNLSKMQARIAFSAYLQHVQIRLMKDSGGQTFSASWAAKEDEQMELVVRFLKRASNNLQHSLRMVLPSRRLALLERRRILAHQLGDFIIVYNKETEQMAEKKSKKKVEEEEEDGVNMENFQEFIRQASEAELEEVLTFYTQKNKSASVFLGTHSKISKNNNNYSDSGAKGDHPETIMEEVKIKPPKQQQTTEIHSDKLSRFTTSAEKEAKLVYSNSSSGPTATLQKIPNTHLSSVTTSDLSPGPCHHSSLSQIPSAIPSMPHQPTILLNTVSASASPCLHPGAQNIPSPTGLPRCRSGSHTIGPFSSFQSAAHIYSQKLSRPSSAKAGSCYLNKHHSGIAKTQKEGEDASLYSKRYNQSMVTAELQRLAEKQAARQYSPSSHINLLTQQVTNLNLATGIINRSSASAPPTLRPIISPSGPTWSTQSDPQAPENHSSSPGSRSLQTGGFAWEGEVENNVYSQATGVVPQHKYHPTAGSYQLQFALQQLEQQKLQSRQLLDQSRARHQAIFGSQTLPNSNLWTMNNGAGCRISSATASGQKPTTLPQKVVPPPSSCASLVPKPPPNHEQVLRRATSQKASKGSSAEGQLNGLQSSLNPAASVPITSSTDPAHTKI |  |  |  | unchanged

Source: patent US7867500B2, “Cofactor that modulates steroid receptor activities” (The United States of America as represented by the …, priority 2004, dated 2011)
